Laboratory results published in publication PMC9688318, “Construction of a Versatile, Programmable RNA-Binding Protein Using Designer PPR Proteins and Its Application for Splicing Control in Mammalian Cells”.

Key:
[1] = target: T1, PPR2.0 t5 (synthetic); experiment: 20 mM Tris-HCl pH 8.0, 150 mM NaCl, 0.5% NP-40, 1 mM DTT; conditions: tags: N-terminal NanoLuc, C-terminal His6, kept; label: biotin
T1 chain: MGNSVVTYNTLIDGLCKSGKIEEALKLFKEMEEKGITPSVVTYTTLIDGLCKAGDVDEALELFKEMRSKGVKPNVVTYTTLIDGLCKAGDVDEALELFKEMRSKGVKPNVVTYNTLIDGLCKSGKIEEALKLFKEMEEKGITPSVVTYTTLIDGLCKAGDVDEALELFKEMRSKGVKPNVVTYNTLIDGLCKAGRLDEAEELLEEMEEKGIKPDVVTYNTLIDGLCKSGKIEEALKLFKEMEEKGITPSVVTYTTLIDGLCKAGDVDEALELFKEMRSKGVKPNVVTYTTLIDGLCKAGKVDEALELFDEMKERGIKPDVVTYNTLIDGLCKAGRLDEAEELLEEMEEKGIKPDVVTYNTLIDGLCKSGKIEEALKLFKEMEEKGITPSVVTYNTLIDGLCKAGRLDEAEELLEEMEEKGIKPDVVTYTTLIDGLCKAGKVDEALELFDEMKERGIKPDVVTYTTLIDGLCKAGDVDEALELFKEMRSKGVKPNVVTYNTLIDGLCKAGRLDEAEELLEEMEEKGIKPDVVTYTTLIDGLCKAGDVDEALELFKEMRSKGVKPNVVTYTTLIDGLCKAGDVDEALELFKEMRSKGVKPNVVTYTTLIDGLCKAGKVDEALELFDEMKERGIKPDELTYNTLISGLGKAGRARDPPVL

[2] = target: T1, PPR2.0 t5; experiment: EMSA; 20 mM Tris-HCl pH 8.0, 150 mM NaCl, 0.5% NP-40, 1 mM DTT, 1 mM EDTA; 20 nM RNA; conditions: tags: N-terminal SBP, C-terminal His6, kept; label: biotin
[3] = target: T2, PPR2.0 t8 (synthetic); experiment: 20 mM Tris-HCl pH 8.0, 150 mM NaCl, 0.5% NP-40, 1 mM DTT; conditions: tags: N-terminal NanoLuc, C-terminal His6, kept; label: biotin
T2 chain: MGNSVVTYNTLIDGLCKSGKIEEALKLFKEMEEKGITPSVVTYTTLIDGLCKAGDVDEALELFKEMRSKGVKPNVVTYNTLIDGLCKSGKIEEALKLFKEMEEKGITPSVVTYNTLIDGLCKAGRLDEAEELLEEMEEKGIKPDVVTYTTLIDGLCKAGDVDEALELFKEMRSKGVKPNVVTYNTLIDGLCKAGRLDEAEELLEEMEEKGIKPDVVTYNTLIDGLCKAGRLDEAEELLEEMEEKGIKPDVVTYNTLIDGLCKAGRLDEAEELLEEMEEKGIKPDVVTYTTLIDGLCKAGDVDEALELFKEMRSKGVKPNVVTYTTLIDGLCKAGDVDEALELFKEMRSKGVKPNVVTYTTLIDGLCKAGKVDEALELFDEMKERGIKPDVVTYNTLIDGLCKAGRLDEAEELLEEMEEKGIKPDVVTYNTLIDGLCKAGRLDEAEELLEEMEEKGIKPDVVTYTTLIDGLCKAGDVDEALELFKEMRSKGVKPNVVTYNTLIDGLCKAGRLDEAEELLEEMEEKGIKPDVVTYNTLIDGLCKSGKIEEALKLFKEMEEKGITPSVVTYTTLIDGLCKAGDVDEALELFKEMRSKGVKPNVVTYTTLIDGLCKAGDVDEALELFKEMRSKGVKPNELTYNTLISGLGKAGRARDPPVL

[4] = target: T2, PPR2.0 t8; experiment: EMSA; 20 mM Tris-HCl pH 8.0, 150 mM NaCl, 0.5% NP-40, 1 mM DTT, 1 mM EDTA; 20 nM RNA; conditions: tags: N-terminal SBP, C-terminal His6, kept; label: biotin
[5] = target: T3, PPR2.0 t14 (synthetic); experiment: 20 mM Tris-HCl pH 8.0, 150 mM NaCl, 0.5% NP-40, 1 mM DTT; conditions: tags: N-terminal NanoLuc, C-terminal His6, kept; label: biotin
T3 chain: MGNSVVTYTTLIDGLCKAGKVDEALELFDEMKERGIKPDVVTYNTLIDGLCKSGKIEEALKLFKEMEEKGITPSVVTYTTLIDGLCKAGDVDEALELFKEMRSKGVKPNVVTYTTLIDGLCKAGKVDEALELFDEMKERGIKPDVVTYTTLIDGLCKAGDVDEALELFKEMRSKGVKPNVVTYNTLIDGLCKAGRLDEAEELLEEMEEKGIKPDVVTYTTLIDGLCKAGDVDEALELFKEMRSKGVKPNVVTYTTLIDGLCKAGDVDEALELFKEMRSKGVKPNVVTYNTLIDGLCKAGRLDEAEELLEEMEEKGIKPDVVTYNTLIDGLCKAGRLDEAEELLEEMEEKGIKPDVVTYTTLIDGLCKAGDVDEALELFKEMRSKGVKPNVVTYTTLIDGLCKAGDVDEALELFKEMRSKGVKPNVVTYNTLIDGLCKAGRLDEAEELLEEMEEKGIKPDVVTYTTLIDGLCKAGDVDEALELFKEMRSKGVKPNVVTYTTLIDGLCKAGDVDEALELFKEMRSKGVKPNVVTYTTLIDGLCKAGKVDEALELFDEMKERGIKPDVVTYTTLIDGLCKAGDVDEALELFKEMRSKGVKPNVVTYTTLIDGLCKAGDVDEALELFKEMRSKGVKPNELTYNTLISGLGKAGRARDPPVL

[6] = target: T3, PPR2.0 t14; experiment: EMSA; 20 mM Tris-HCl pH 8.0, 150 mM NaCl, 0.5% NP-40, 1 mM DTT, 1 mM EDTA; 20 nM RNA; conditions: tags: N-terminal SBP, C-terminal His6, kept; label: biotin
[7] = target: T4, PPR2.0 t4 (synthetic); experiment: 20 mM Tris-HCl pH 8.0, 150 mM NaCl, 0.5% NP-40, 1 mM DTT; conditions: tags: N-terminal NanoLuc, C-terminal His6, kept; label: biotin
T4 chain: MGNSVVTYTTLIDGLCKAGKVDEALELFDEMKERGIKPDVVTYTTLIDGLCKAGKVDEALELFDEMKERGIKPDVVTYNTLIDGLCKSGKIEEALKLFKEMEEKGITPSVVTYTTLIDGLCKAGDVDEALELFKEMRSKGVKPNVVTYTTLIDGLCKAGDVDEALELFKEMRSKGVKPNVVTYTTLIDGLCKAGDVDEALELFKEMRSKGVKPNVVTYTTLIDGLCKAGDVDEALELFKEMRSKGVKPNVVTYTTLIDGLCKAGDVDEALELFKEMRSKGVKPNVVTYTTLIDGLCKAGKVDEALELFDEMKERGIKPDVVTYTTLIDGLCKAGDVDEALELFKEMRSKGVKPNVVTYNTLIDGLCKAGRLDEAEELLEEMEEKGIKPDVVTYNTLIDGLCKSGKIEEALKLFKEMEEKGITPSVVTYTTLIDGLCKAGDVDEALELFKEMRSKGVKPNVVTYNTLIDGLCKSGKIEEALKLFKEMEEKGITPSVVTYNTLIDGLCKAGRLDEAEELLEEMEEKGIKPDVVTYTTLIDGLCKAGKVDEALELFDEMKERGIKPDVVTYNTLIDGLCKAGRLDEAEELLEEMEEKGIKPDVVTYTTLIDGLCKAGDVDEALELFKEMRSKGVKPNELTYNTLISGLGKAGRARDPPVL

[8] = target: T4, PPR2.0 t4; experiment: EMSA; 20 mM Tris-HCl pH 8.0, 150 mM NaCl, 0.5% NP-40, 1 mM DTT, 1 mM EDTA; 20 nM RNA; conditions: tags: N-terminal SBP, C-terminal His6, kept; label: biotin
[9] = target: T5, PPR2.0 t11 (synthetic); experiment: 20 mM Tris-HCl pH 8.0, 150 mM NaCl, 0.5% NP-40, 1 mM DTT; conditions: tags: N-terminal NanoLuc, C-terminal His6, kept; label: biotin
T5 chain: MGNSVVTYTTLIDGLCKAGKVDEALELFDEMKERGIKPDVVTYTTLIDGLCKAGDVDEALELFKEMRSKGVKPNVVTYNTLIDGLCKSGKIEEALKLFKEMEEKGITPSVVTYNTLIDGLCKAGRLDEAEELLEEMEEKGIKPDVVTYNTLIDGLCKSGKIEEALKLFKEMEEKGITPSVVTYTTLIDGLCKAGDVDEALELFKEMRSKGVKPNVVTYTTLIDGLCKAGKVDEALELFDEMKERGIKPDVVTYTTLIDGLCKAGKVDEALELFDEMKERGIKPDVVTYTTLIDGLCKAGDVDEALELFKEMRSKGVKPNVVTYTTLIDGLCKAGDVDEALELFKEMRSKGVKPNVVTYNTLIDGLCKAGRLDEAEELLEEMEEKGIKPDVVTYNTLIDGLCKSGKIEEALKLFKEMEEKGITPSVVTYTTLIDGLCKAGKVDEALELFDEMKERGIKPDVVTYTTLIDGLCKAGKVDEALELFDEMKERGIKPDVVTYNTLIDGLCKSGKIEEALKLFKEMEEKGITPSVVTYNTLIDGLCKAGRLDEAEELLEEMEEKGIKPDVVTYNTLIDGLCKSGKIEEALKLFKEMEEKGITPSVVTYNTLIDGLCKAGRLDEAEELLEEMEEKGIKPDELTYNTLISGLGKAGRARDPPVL

[10] = target: T5, PPR2.0 t11; experiment: EMSA; 20 mM Tris-HCl pH 8.0, 150 mM NaCl, 0.5% NP-40, 1 mM DTT, 1 mM EDTA; 20 nM RNA; conditions: tags: N-terminal SBP, C-terminal His6, kept; label: biotin
[11] = target: T6, PPR2.0 t15 (synthetic); experiment: 20 mM Tris-HCl pH 8.0, 150 mM NaCl, 0.5% NP-40, 1 mM DTT; conditions: tags: N-terminal NanoLuc, C-terminal His6, kept; label: biotin
T6 chain: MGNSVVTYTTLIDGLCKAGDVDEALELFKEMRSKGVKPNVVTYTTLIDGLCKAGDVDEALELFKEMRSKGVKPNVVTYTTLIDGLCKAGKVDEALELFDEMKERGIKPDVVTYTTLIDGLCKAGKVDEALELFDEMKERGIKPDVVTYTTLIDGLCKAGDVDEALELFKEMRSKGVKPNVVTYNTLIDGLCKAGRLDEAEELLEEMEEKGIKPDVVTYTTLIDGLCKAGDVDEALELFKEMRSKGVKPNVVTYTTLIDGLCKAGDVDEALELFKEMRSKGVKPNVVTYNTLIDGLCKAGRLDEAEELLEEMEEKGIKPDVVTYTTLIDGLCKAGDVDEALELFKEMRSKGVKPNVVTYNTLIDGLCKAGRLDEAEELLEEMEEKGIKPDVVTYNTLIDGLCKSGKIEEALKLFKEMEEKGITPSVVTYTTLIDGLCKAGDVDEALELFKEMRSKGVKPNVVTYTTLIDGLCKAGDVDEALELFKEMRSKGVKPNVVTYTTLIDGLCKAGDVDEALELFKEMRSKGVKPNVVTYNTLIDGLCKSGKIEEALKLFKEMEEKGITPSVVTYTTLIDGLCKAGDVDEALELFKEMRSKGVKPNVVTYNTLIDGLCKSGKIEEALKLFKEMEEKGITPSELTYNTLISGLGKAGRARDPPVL

[12] = target: T6, PPR2.0 t15; experiment: EMSA; 20 mM Tris-HCl pH 8.0, 150 mM NaCl, 0.5% NP-40, 1 mM DTT, 1 mM EDTA; 20 nM RNA; conditions: tags: N-terminal SBP, C-terminal His6, kept; label: biotin

GACAUGCCAACAUCAGUCUGAUAAGGACUG (ssRNA) [Probe_t5]
binding signal [1]: 1.67e+07 RBP-ELISA luminescence, CPS
Kd [2]: 167 nM

GACAUGCCACUAUUUAAGUUAUCAAGACUG (ssRNA) [Probe_t8]
binding signal [3]: 4.7e+07 RBP-ELISA luminescence, CPS
Kd [4]: 1.95 nM

GACAUGCGCAGAUAAUUAAUAAGAAGACUG (ssRNA) [Probe_t14]
binding signal [5]: 1.33e+07 RBP-ELISA luminescence, CPS
Kd [6]: 197 nM

GACAUGCGGCAAAAAGAUCACUGUAGACUG (ssRNA) [Probe_t4]
binding signal [7]: 5.98e+07 RBP-ELISA luminescence, CPS
Kd [8]: 2.57 nM

GACAUGCGACUCAGGAAUCGGCUCUGACUG (ssRNA) [Probe_t11]
binding signal [9]: 3.78e+07 RBP-ELISA luminescence, CPS
Kd [10]: 63.3 nM

GACAUGCAAGGAUAAUAUCAAACACGACUG (ssRNA) [Probe_t15]
binding signal [11]: 2.84e+07 RBP-ELISA luminescence, CPS
Kd [12]: 41 nM
